Measured values as given in the supplement of paper PMC9732359.
± gives the uncertainty stated by the source.

Assay: protein stability index of a GFP-peptide fusion (yeast GPS) (PSI 1-4); higher = more stable; sorted into four equal gates, so the index is relative within each strain
Procedure, shortened: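 Plasmids in a pooled yeast library fused tiled 17-residue yeast protein peptides downstream of GFP and also expressed Cherry. Mid-log cultures grown without leucine were sorted into four equal gates by GFP/Cherry fluorescence ratio. Each gate's plasmids were PCR-amplified and Illumina-sequenced, and reads were matched to strains by barcodes. The protein stability index is derived by multiplying each gate's read frequency by its gate number and summing the results.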

Row | Sequence | protein stability index (doa10∆) | protein stability index (pdr5∆) | protein stability index (san1∆) | protein stability index (ubr1∆)
1 | QLESIYFRILLPYERHM [SWI1] | 1.88 ± 0.055 | 1.83 ± 0.046 | 1.68 ± 0.067 | 1.9 ± 0.053
2 | RVHANLQCISQINQGVP [SNF11] | 1.49 ± 0.043 | 1.42 ± 0.043 | 1.47 ± 0.067 | 1.89 ± 0.055
3 | KTYKEGINKNEEYRKQL [SMC1] | 3.23 ± 0.16 | 2.2 ± 0.084 | 2.31 ± 0.077 | 2.19 ± 0.056
4 | QEQVQDYVNKTNSHLPA [FAS1] | 2.52 ± 0.069 | 2.44 ± 0.1 | 2.62 ± 0.11 | 2.32 ± 0.064
5 | FSWGRPADSTYGAYNTQ [PRE4] | 2.75 ± 0.081 | 2.68 ± 0.064 | 2.94 ± 0.059 | 3.04 ± 0.047
6 | DRVAKVLTYPEKVTRYN [RPO31] | 2.87 ± 0.12 | 2.92 ± 0.14 | 2.94 ± 0.29 | 2.98 ± 0.17
7 | HGQLKLSIQYMIQKVME [RPN5] | 2.17 ± 0.1 | 2.73 ± 0.081 | 2.04 ± 0.15 | 2.84 ± 0.085
8 | DDDERVEYNLFTNRSTM [BRN1] | 2.97 ± 0.12 | 3.2 ± 0.12 | 3.11 ± 0.07 | 3.1 ± 0.068
9 | QIKTLPEQYSDILLNER [AAR2] | 2.96 ± 0.077 | 3.24 ± 0.06 | 3.14 ± 0.077 | 2.95 ± 0.072
10 | KRFMNTSQNPQRDAEIS [BRR2] | 3.04 ± 0.076 | 3.03 ± 0.085 | 3.12 ± 0.1 | 2.95 ± 0.059
11 | YRLMIKRLNFSFVGDYM [GRR1] | 2 ± 0.065 | 1.41 ± 0.052 | 1.53 ± 0.095 | 1.51 ± 0.054
12 | RKRAHSLVSTQSSSSTR [REC8] | 2.86 ± 0.069 | 2.94 ± 0.068 | 2.77 ± 0.051 | 2.92 ± 0.068
13 | MYTLSAQDEVFSLAFSP [ASC1] | 2.24 ± 0.062 | 2.82 ± 0.085 | 2.78 ± 0.059 | 2.75 ± 0.066
14 | ELRYQSHILNSHSLALN [DSN1] | 2.29 ± 0.066 | 2.66 ± 0.058 | 2.63 ± 0.057 | 2.66 ± 0.049
15 | AGVVQDIGSDPTLPRSD [RPB9] | 2.83 ± 0.078 | 3.2 ± 0.093 | 2.9 ± 0.061 | 2.94 ± 0.047
16 | SNYAASNSMDRSSSASN [SWI1] | 2.79 ± 0.14 | 2.7 ± 0.089 | 2.88 ± 0.07 | 2.84 ± 0.093
17 | MQVLNTKSETKQENETM [MED11] | 2.79 ± 0.081 | 2.16 ± 0.11 | 1.41 ± 0.26 | 2 ± 0.092
18 | DICQIDTNAPVAATITS [SRB8] | 2.29 ± 0.063 | 2.45 ± 0.083 | 2.36 ± 0.096 | 2.26 ± 0.049
19 | QDQYKEGIKVVDIDDPD [SNF2] | 2.97 ± 0.16 | 2.45 ± 0.086 | 2.13 ± 0.071 | 2.54 ± 0.073
20 | LIELLEKLDVSRSSVCV [YCG1] | 2.44 ± 0.072 | 2.32 ± 0.058 | 2.05 ± 0.08 | 1.88 ± 0.065
21 | NLLSKRNQEKKMEKKKS [SNM1] | 3.09 ± 0.16 | 3.38 ± 0.28 |  | 
22 | QDNHHITKVTENLFSKE [YMR129W/POM152] | 2.86 ± 0.059 | 2.8 ± 0.066 | 2.99 ± 0.045 | 3.1 ± 0.049
23 | TTIFVKSTTPYVSALKR [POP7] | 1.82 ± 0.07 | 2.27 ± 0.077 | 2.27 ± 0.076 | 1.97 ± 0.056
24 | AALIASKVYYNLGEYES [RPN2] | 1.88 ± 0.077 | 1.6 ± 0.066 | 1.33 ± 0.067 | 1.69 ± 0.051
25 | GTSTTHGSISPQEESVS [SIR3] | 2.14 ± 0.043 | 2.56 ± 0.045 | 2.43 ± 0.053 | 2.48 ± 0.033
26 | QAGVTKASVTIVFDNTD [SMC2] | 2.23 ± 0.071 | 2.76 ± 0.058 | 2.73 ± 0.053 | 3.09 ± 0.047

Row | Sequence | protein stability index (doa10∆) | protein stability index (pdr5∆) | protein stability index (san1∆) | protein stability index (ubr1∆)
27 | VEEDHTLGNALRYVIMK [RPC19] | 3.08 ± 0.11 | 2.75 ± 0.071 | 2.54 ± 0.085 | 2.73 ± 0.063
28 | EGAARGTSVYLVDKRID [DIS3] | 3.38 ± 0.17 | 3.33 ± 0.14 | 3.13 ± 0.086 | 3.08 ± 0.12
29 | RRLAFLGIKVAELTGDS [BRR2] |  | 2.24 ± 0.19 | 2.71 ± 0.16 | 
30 | MNQSSIDRGLFRSLFFR [RPB2] | 3.16 ± 0.16 | 2.97 ± 0.2 | 2.63 ± 0.26 | 2.94 ± 0.08
31 | IEEQGDALQDVEESSEK [DPB4] | 3.02 ± 0.12 | 3.46 ± 0.079 | 3.13 ± 0.059 | 3.41 ± 0.075
32 | VKGDLLQEAIDFAQKEI [PRE10] | 2.9 ± 0.076 | 2.84 ± 0.066 | 3.2 ± 0.054 | 2.9 ± 0.048
33 | NSYQPSPFFVLDEVDAA [SMC1] | 2.6 ± 0.12 | 2.57 ± 0.12 | 2.49 ± 0.12 | 2.77 ± 0.087
34 | STVAKFLARVIKEKFDE [IRR1] | 2.86 ± 0.1 | 2.33 ± 0.082 | 3.36 ± 0.22 | 2.16 ± 0.09
35 | EILGINLANEQPVLEKP [SIR4] | 3 ± 0.068 | 3.2 ± 0.052 | 3.21 ± 0.045 | 3.11 ± 0.046
36 | KIQETELKIRSKTENVR [RPT6] | 2.35 ± 0.11 | 2.61 ± 0.088 | 2.23 ± 0.16 | 2.57 ± 0.073
37 | PDKLLGVILMFAAILVL [COB] | 1.63 ± 0.11 | 1.62 ± 0.11 | 1.66 ± 0.12 | 1.59 ± 0.11
38 | SMFSGLDSTGFDSTAFN [MED2] | 3.05 ± 0.044 | 3.17 ± 0.042 | 3.19 ± 0.034 | 3.104 ± 0.03
39 | RKHHKKGITEEVAKKRS [RPL24A] | 3.36 ± 0.12 | 3.45 ± 0.2 | 3.19 ± 0.17 | 3.02 ± 0.092
40 | GFERLTVNEPQMSDKHA [SRB7] | 3.06 ± 0.12 | 3.36 ± 0.082 | 3.25 ± 0.14 | 3.16 ± 0.051
41 | DLSRNGRNGSNGNDESS [NUT1] | 3.19 ± 0.078 | 3.33 ± 0.09 | 3.18 ± 0.059 | 3.14 ± 0.068
42 | EEDADQEESFSLNLGIG [SRB8] | 3.2 ± 0.14 | 3.01 ± 0.27 | 2.94 ± 0.17 | 
43 | PRMASVFENYVKKTGEN [CDC53] | 3.46 ± 0.11 | 3.4 ± 0.087 | 3.54 ± 0.065 | 3.47 ± 0.049
44 | HDVLQKLNTLSEILSFD [YML103C/NUP188] | 2.99 ± 0.068 | 3.2 ± 0.067 | 3.03 ± 0.051 | 3.14 ± 0.041
45 | NSSVGNKTDAQAPTTGF [YJL041W/NSP1] | 3 ± 0.072 | 3.15 ± 0.056 | 3.19 ± 0.058 | 2.96 ± 0.094
46 | HESYCLPMDTNLFKINS [YMR129W/POM152] | 1.54 ± 0.055 | 1.72 ± 0.039 | 1.74 ± 0.13 | 1.37 ± 0.067
47 | PCLRKYEEFRDVAIENN [RRP43] | 2.73 ± 0.064 | 2.82 ± 0.065 | 2.9 ± 0.041 | 2.94 ± 0.047
48 | GKVTDVRSTIKFQLKKV [RPL1A] | 3.77 ± 0.21 |  | 3.01 ± 0.25 | 3.46 ± 0.13
49 | ILEDTATMSVFLQRIDF [RRI2] | 2.78 ± 0.059 | 2.53 ± 0.05 | 2.76 ± 0.056 | 2.59 ± 0.042
50 | ETISKLNEYKRETLVKT [SMC2] | 2.02 ± 0.059 | 1.99 ± 0.046 | 2.19 ± 0.062 | 2.57 ± 0.034
51 | VPPIASPQQFLRAHTDD [PRE2] | 2.02 ± 0.068 | 2.72 ± 0.063 | 2.17 ± 0.11 | 2.6 ± 0.087
52 | SREAVRHFGMGPHKGKA [RPL18A] | 3.22 ± 0.19 | 2.8 ± 0.12 | 3.04 ± 0.098 | 3.66 ± 0.16
